The values that follow come from IntAct's records for PubMed 21311754.

Test [1] concerns the target apc_human APC (UniProt P25054).
Test [2] concerns the target apc_human APC (UniProt P25054). The source holds these as a separate data set.

apc_human APC, sequence (P25054 whole entry): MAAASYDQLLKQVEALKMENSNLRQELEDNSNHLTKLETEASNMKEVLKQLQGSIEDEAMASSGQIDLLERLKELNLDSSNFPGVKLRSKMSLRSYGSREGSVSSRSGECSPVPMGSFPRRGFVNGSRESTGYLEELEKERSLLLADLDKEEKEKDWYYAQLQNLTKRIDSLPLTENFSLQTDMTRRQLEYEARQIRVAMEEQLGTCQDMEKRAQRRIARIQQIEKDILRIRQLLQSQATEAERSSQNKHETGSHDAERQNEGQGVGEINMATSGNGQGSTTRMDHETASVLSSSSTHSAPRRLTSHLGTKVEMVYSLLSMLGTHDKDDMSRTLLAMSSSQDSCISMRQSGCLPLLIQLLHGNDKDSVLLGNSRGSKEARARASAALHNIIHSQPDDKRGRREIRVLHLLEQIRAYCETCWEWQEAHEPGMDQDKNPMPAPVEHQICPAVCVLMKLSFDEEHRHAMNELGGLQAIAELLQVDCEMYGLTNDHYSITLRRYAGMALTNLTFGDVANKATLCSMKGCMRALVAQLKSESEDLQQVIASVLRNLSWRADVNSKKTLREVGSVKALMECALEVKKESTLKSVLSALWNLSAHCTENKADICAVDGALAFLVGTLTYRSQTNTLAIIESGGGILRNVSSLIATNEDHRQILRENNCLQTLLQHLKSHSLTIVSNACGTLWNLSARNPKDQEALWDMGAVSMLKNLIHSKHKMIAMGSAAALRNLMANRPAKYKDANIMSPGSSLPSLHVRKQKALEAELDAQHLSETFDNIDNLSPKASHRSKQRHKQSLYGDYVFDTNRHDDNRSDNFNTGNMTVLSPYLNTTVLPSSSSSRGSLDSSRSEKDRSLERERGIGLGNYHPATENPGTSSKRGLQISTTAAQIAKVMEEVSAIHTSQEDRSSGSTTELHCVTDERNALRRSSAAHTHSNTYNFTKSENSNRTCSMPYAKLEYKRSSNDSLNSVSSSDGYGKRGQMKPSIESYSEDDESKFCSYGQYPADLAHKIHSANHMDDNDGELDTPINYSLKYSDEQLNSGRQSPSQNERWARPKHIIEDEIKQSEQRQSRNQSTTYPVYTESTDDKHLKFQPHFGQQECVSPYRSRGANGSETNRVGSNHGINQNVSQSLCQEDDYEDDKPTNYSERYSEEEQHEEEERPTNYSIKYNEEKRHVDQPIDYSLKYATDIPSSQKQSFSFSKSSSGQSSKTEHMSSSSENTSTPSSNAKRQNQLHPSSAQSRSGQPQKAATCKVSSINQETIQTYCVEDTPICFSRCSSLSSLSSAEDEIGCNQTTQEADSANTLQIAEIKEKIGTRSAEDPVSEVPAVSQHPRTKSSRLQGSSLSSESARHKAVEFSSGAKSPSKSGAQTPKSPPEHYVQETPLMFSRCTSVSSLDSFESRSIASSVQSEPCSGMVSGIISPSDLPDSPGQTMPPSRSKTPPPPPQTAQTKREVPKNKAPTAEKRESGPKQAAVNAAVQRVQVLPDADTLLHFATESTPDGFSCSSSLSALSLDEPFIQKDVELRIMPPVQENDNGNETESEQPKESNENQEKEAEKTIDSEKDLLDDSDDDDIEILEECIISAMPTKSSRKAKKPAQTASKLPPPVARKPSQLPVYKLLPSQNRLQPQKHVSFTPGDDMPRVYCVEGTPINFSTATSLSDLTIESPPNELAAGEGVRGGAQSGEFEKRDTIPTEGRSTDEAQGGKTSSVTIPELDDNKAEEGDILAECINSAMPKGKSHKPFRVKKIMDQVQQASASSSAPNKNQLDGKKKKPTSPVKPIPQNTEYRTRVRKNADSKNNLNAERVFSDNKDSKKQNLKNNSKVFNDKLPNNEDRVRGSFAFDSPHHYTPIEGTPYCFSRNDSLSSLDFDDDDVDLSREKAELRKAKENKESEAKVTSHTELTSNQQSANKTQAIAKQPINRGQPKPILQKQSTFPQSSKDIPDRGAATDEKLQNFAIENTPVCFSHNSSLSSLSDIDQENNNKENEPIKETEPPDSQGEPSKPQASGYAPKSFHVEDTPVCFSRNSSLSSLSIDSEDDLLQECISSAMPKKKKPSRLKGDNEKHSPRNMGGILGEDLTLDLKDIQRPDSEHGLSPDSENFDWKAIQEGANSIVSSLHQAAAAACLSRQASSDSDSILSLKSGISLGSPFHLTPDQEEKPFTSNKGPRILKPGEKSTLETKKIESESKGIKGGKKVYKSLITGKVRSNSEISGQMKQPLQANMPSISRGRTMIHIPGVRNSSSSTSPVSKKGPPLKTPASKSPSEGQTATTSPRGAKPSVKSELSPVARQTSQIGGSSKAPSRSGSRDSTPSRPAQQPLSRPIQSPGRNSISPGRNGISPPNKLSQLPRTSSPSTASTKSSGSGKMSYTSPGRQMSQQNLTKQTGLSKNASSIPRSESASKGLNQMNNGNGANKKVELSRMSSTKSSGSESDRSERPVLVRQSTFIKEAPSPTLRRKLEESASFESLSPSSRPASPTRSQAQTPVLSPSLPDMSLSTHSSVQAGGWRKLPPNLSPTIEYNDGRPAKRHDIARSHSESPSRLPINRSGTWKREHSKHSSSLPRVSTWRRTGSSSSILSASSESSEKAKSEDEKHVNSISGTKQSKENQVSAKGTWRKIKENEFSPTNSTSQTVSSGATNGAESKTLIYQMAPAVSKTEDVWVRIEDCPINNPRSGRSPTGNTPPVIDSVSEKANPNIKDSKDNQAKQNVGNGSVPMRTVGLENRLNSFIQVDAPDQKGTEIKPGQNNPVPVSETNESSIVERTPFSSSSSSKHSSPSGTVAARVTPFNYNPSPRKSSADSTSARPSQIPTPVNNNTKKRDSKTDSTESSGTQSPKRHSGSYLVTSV
Cell division control protein 42 homolog (Homo sapiens), P60953 T17N, sequence (P60953 whole entry T17N): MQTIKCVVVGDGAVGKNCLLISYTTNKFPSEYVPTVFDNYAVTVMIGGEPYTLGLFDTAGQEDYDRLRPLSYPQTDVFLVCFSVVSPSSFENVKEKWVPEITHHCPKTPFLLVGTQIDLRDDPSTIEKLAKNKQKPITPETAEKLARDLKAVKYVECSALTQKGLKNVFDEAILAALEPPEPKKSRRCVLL

For the substance “Cell division control protein 42 homolog (Homo sapiens), P60953 T17N”, the “effect of a mutation on the interaction” value with apc_human APC [1] is recorded as “disrupting interaction strength”; with apc_human APC [2], “decreasing interaction strength”.
